From patent US20220378829A1 (CRISPR THERAPEUTICS, published 2022)

Biological target: T1, CD70 on human cancer cell lines (A498, ACHN, SK-OV-3, Hs 766T, NCI-H1975, Calu-1, DU 145, SNU-1, MM.1S, HuT78) (human, UniProt P32970 1-193)
T1 sequence (looked up): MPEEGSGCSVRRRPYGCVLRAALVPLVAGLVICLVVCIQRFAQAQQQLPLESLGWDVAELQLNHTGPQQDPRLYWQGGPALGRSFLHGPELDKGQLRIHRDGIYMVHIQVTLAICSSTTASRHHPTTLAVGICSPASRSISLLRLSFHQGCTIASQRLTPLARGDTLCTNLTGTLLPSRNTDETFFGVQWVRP
Assay: cell-based or functional assay

cell lysis of A498 cells by TRAC-/β2M-/CD70-/anti-CD70 CAR+ T cells, T cell:A498 ratios 1:1 and 0.5:1, 24 h (Cell titer-Glo): > 90%
cell lysis of A498 cells by TRAC-/β2M-/anti-CD70 CAR+ T cells (2×KO), T cell:A498 ratios 1:1 and 0.5:1, 24 h (Cell titer-Glo): < 90%
B1: anti-CD70 CAR (CD70B scFv with 41BB), expressed on the surface of gene-edited human T cells (CTX130: TRAC-/β2M-/CD70-/anti-CD70 CAR+ T cells) (other)
chain: QVQLVQSGAEVKKPGASVKVSCKASGYTFTNYGMNWVRQAPGQGLKWMGWINTYTGEPTYADAFKGRVTMTRDTSISTAYMELSRLRSDDTAVYYCARDYGDYGMDYWGQGTTVTVSSGGGGSGGGGSGGGGSGDIVMTQSPDSLAVSLGERATINCRASKSVSTSGYSFMHWYQQKPGQPPKLLIYLASNLESGVPDRFSGSGSGTDFTLTISSLQAEDVAVYYCQHSREVPWTFGQGTKVEIKSAAAFVPVFLPAKPTTTPAPRPPTPAPTIASQPLSLRPEACRPAAGGAVHTRGLDFACDIYIWAPLAGTCGVLLLSLVITLYCNHRNRKRGRKKLLYIFKQPFMRPVQTTQEEDGCSCRFPEEEEGGCELRVKFSRSADAPAYQQGQNQLYNELNLGRREEYDVLDKRRGRDPEMGGKPRRKNPQEGLYNELQKDKMAEAYSEIGMKGERRRGKGHDGLYQGLSTATKDTYDALHMQALPPR
